This note sets out measurements from patent US20230250176A1.

The term Kd denotes the equilibrium constant for the complex coming apart.

The target in assay [1] is purified recombinant human FcγRI (human) (UniProt P12314). The assay can be described thus: SPR (Biacore 8K), 25 C. (SPR reads the build-up and loss of mass on a sensor chip optically.)
Assay [2] deals with purified recombinant human FcγRIIa H131 (human) (UniProt P12318). The assay can be described thus: SPR (Biacore 8K), 25 C.
Sequence of purified recombinant human FcγRIIa H131 (human) (P12318 36-218 limits assumed): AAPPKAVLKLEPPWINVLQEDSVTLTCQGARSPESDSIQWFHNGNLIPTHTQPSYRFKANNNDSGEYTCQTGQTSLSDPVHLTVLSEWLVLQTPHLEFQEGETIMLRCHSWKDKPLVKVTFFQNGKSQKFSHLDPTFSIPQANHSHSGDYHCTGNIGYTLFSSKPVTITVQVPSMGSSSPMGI

Consider cetuximab (antibody), for which the Kd in assay [1] was 7.3 nM. In the case of panitumumab (antibody), the Kd in assay [2] was 1100 nM.
